Experimental data taken from patent US5747239A, “Synthetic peptides specific for the detection of antibodies to HCV, diagnosis of HCV infection and preventions thereof as vaccines” (United Biomedical, Inc., priority 1994, dated 1998).

Experiments:
antibodies to HCV [1] = assay: Peptide ELISA for relative immunoreactivity, 8 member HCV serum panel (Panel I); format: binding, human; conditions: NS-3 peptides (Tables 4B-4D), relative to pep3 (279A)
antibodies to HCV [2] = assay: EIA of NS-3 peptides before and after pH adjustment; format: binding, human
Experimental: Peptides dissolved at 1 mg/mL in H2 O, pH 4, were titrated to pH 11 by addition of diluted NaOH. After 5 min at pH 11, the pH of the peptide solution was brought down to 7.0 using diluted HCl. Immunoreactivity of the peptides thus treated was compared with reactivity prior to pH adjustment (Table 4E). Two-to three-fold increases in A492 nm were seen. Some previously non-reactive serum samples were able to react with pH adjusted peptides. For instance, serum sample 1, which is non-reactive to 261C, has an absorbance of 1401 mA when tested with the corresponding pH adjusted peptide.

YGKFLADGGCSGGAYDIIICDECHSTDAT [262A]
% Relative Immunoreactivity (antibodies to HCV [1]): 6.9%

B1: SVAATLGFGAYMSKAHGIDPNIRTGVRTITTGSPITYSTYGKFLADGGCSGGAYDIIICDECHSTDAT (peptide)
chain: SVAATLGFGAYMSKAHGIDPNIRTGVRTITTGSPITYSTYGKFLADGGCSGGAYDIIICDECHSTDAT
% Relative Immunoreactivity (antibodies to HCV [1]): 4.7%

B2: GYKVLVLNPSVAATLGFGAYMSKAHGIDPNIRTGVRTITTGSPITYSTYGKFLADGGCSGGAYDIIICDECHSTDATSILGIGTVLDQAETAGARLVVLATATPPGSVTVPHPNIEEVAL (peptide)
chain: GYKVLVLNPSVAATLGFGAYMSKAHGIDPNIRTGVRTITTGSPITYSTYGKFLADGGCSGGAYDIIICDECHSTDATSILGIGTVLDQAETAGARLVVLATATPPGSVTVPHPNIEEVAL
% Relative Immunoreactivity (antibodies to HCV [1]): 2.8%

B3: LVLNPSVAATLGFGAYMSKAHGIDPNIRTGVRTITTGSPITYSTYGKFLADGGCSGGAYDIIICDECHS (peptide)
chain: LVLNPSVAATLGFGAYMSKAHGIDPNIRTGVRTITTGSPITYSTYGKFLADGGCSGGAYDIIICDECHS
A492 nm (mA) by EIA (antibodies to HCV [2]; serum sample 1, Ctrl (prior to pH adjustment)): 210 mA | A492 nm (mA) by EIA (antibodies to HCV [2]; serum sample 1, pH adj (pH 11 for 5 min, then 7.0)): 591 mA | A492 nm (mA) by EIA (antibodies to HCV [2]; serum sample 2, Ctrl): 37 mA | A492 nm (mA) by EIA (antibodies to HCV [2]; serum sample 2, pH adj): 159 mA | A492 nm (mA) by EIA (antibodies to HCV [2]; serum sample 3, Ctrl): 0 mA | A492 nm (mA) by EIA (antibodies to HCV [2]; serum sample 3, pH adj): 217 mA | A492 nm (mA) by EIA (antibodies to HCV [2]; serum sample 4, Ctrl): 124 mA | A492 nm (mA) by EIA (antibodies to HCV [2]; serum sample 4, pH adj): 311 mA | % Relative Immunoreactivity (antibodies to HCV [1]): 11.1%

B4: TVLDQAETAGARLVVLATATPPGSVTVPHPNIEEVALSTTGEIPFYGKAIPLEVIKGGRHLIFCHSKKKCDEL (peptide)
chain: TVLDQAETAGARLVVLATATPPGSVTVPHPNIEEVALSTTGEIPFYGKAIPLEVIKGGRHLIFCHSKKKCDEL
% Relative Immunoreactivity (antibodies to HCV [1]): 15.8%

B5: TMRSPVFTDNSSPPVVPQSFQVAHLHAPTGSGKSTKVPAAYAAQGYKVLVLNPSVAATLGFGAYMSKAHGIDPNIRTGVRTITTGSPITYSTYGKFLADGGCSGGAYDIIICDECHS (peptide)
chain: TMRSPVFTDNSSPPVVPQSFQVAHLHAPTGSGKSTKVPAAYAAQGYKVLVLNPSVAATLGFGAYMSKAHGIDPNIRTGVRTITTGSPITYSTYGKFLADGGCSGGAYDIIICDECHS
% Relative Immunoreactivity (antibodies to HCV [1]): 5.4%

B6: GYKVLVLNPSVAATLGFGAYMSKAHGIDPNIRTGVRTITTGSPITYSTYGKFLADGGCSGGAYDIIICDECHSTDAT (peptide)
chain: GYKVLVLNPSVAATLGFGAYMSKAHGIDPNIRTGVRTITTGSPITYSTYGKFLADGGCSGGAYDIIICDECHSTDAT
% Relative Immunoreactivity (antibodies to HCV [1]): 5.1%

B7: AHGIDPNIRTGVRTITTGSPITYSTYGKFLADGGCSGGAYDIIICDECHSTDATSILGIGTVLDQAETAGARLVVLATATPPGSVTVPHPNIEEVAL (peptide)
chain: AHGIDPNIRTGVRTITTGSPITYSTYGKFLADGGCSGGAYDIIICDECHSTDATSILGIGTVLDQAETAGARLVVLATATPPGSVTVPHPNIEEVAL
% Relative Immunoreactivity (antibodies to HCV [1]): 3.9%

B8: HLHAPTGSGKSTKVPAAYAAQGYKVLVLNPSVAATLGFGAYMSKAHGIDPNIRTGVRTITTGSPITYSTYGKFLADGGCSGGAYDIIICDECHS (peptide)
chain: HLHAPTGSGKSTKVPAAYAAQGYKVLVLNPSVAATLGFGAYMSKAHGIDPNIRTGVRTITTGSPITYSTYGKFLADGGCSGGAYDIIICDECHS
% Relative Immunoreactivity (antibodies to HCV [1]): 9.6%
